Laboratory results taken from article PMC3240820 (Structure (London, England : 1993), 2011).
Like-named read-outs stand apart in the source and are kept apart here. Values belong to the binder of their own block, whether it stands above or below them.

What was measured:
[1] = biological target: the molecule itself
[2] = biological target: Caskin1 CID-2SAMs G520E (human, UniProt Q8WXD9 375-605, G520E); assay: SEC
[3] = biological target: the molecule itself; assay: crystal structure
[4] = biological target: T1, CaMK domain of CASK (CASK310), residues 1-310 (UniProt O14936 1-310); assay: co-precipitation on dialysis into low salt
T1 sequence (looked up): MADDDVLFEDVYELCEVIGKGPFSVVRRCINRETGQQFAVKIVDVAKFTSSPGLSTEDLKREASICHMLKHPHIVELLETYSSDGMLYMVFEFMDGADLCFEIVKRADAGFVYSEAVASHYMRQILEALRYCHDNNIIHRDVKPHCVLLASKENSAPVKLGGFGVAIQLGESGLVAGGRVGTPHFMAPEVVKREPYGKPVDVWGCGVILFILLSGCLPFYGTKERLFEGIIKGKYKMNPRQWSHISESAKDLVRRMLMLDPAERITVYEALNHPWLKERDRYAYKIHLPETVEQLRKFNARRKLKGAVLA

Chain of Caskin1 CID-2SAMs G520E (Q8WXD9 375-605 G520E): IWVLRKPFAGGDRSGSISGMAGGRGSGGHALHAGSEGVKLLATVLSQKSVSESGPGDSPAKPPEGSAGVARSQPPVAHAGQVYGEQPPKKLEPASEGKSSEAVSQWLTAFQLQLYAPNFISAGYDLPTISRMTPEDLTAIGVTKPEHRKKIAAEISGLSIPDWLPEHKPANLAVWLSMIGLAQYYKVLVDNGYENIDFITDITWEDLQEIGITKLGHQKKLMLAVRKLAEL

binding result [2]: binds
B2: Caskin1 CID-2SAMs G566K (domain or fragment)
chain: not shown

binding result [4]: binds
B4: Caskin1 CID-2SAMs (residues 375-605) (domain or fragment)
chain: not shown

More lines, now with the values behind:

B1: Caskin1 SAMs (E470-G615) with the His-tag removed (domain or fragment)
chain: not shown
binding result [1]: binds

B3: Caskin1 6His-(E470-G615) (domain or fragment)
chain: not shown
binding result [3]: binds
